{"source": "the nanobody polyreactivity screen of Harvey et al. (2022)", "data": [{"test": "yeast display, Sf9 membrane polyspecificity reagent, FACS + sequencing; frameworks hold sequencing errors", "procedure,_shortened": "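After 36–48 hours of galactose induction, yeast (Saccharomyces cerevisiae BJ5465) displaying a synthetic nanobody library were stained at 4 °C for 1 hour with 10% biotinylated, detergent-solubilized Sf9 membrane reagent. Streptavidin microbeads enriched the stained cells before FACS sorting into low and high (top ~1%) gates on anti-HA and streptavidin fluorescence. Each clone's polyreactivity label reflects its gate of origin.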", "values": [{"sequence": "QVQLQESGDGLVQAVGSLRLSCAASGYISGYYYMGWYRQAPGKERELVAGIDAFGSSTNYADCVKGRFTISRDNAKTTVYLPPNSPKPEDTAVYYCAAEYDDWDYHWYWGQGTQVTVSS", "polyreactivity (PSR sort gate)": "low polyreactivity"}, {"sequence": "QVQLQESGGDLEQAGGSLRLSCTASGTISDVRDMGWYRQAPGKERELVATISYVTITYYSDSVKGRFTISRASEKHRVSADDEPETGRYRGVLLRYYWGLGTQVTVSS", "polyreactivity (PSR sort gate)": "low polyreactivity"}, {"sequence": "QVQLQESGGDLEQAGGSLRLSCTASGTISDVRVMGWYRQAPGKERELVATISYVTITYYADSVKGRFTISRDSEKHRVSADDEPESGRYRGVLLRYYWGLGTQVTVSS", "polyreactivity (PSR sort gate)": "low polyreactivity"}, {"sequence": "QVQLQESGGGLEHAGGSLRLSCAASGNIFLSIFMGWYRQAPGKEREFVAGIGSGTNTNYADSVKGRFTISRDNANNTVYLQMNSLKPEDTAVYYCNAVWGSHYPTYAKLSRDYWGQGTQVTVSS", "polyreactivity (PSR sort gate)": "high polyreactivity"}, {"sequence": "QVQLQESGGGLEQAGGCLRLSCAASGSIFTYAVMGWYRQAHGKEHELVATIDTGSSTYYADSVKGRISISRDNAKNTLYLQMNSLKPEDTEVYYCAVNTYCRVRYRYWVQGTQVTVSS", "polyreactivity (PSR sort gate)": "high polyreactivity"}, {"sequence": "QVQLQESGGGLEQAGGDLRLSCAASGNIFRDYIMGWYRQAPGKEREFVAGIDRGANTNYADSVKGRFTISRDNAKNTVYLQMNSLKPEDTAVYYCAVHTAIVADFIYWGQGTQVTVSS", "polyreactivity (PSR sort gate)": "low polyreactivity"}, {"sequence": "QVQLQESGGGLEQAGGSLRLSCAASGIIFDNPNMGWYRQAPGKERELVATINSGATTNYADSVKGRFTISRDNAKNTVYLQMNSLIPEDTAVYYCAVDLSPTYFYYWGQGTQVTVSS", "polyreactivity (PSR sort gate)": "high polyreactivity"}, {"sequence": "QVQLQESGGGLEQAGGSLRLSCAASGYISHIGTMGWYRQAPGKEREFVATIVVGSTTNYADSVKRRFTISRDNAKNTVYLQPESGRYRGVLLRGWLLAVGKFTYWGQGTQETVSS", "polyreactivity (PSR sort gate)": "low polyreactivity"}, {"sequence": "QVQLQESGGGLEQAGGSLRLSCAESGIIFDNPNMGWYRQAPGKERELVATINSGATTNYADSVKGRFTISRDNAKNTVYLQMNSLIPEDTAVYYCSVDLSPTYFYVWGQGTQVTVSS", "polyreactivity (PSR sort gate)": "high polyreactivity"}, {"sequence": "QVQLQESGGGLLQAGGSLRLSCAASGSISQYIFMGWYRQAPGKEREFVAGIGYGGTTNYADSVTGRFTISRDNAKNTVYLQMNSLKPEDTAMYYCSAREATEFYLYYWGQGTQVTVSS", "polyreactivity (PSR sort gate)": "low polyreactivity"}, {"sequence": "QVQLQESGGGLMQAGGNLRLSCAASGYISTHYDMDWSRQAPGKERELVARIDDGAITNYADSVKGRFTISRDNATNTVYLQMNSLKPEDTAVYYCAVYSGDDYYHDYWGQGTQVTVSS", "polyreactivity (PSR sort gate)": "low polyreactivity"}, {"sequence": "QVQLQESGGGLMQAGGNLRLSCAASGYISTHYYMHWYRQAPGKERELVARIDDGAITNYADSVKGRFTISRDNAKNTVYLLMNSLKPEDTAVYYCAVYSGDDYYHDFWGQGTKVTVSS", "polyreactivity (PSR sort gate)": "low polyreactivity"}, {"sequence": "QVQLQESGGGLVHACGSLRPSCAASGSISDSWTMSWYRQAPGKEREFVAGITWGGTTNYADSVKGRFTISRDNAKNTVYLQMNSLKPEDSAVYYCNARQRTYYRTHRIRHKGNGYWGQGTQVTVSS", "polyreactivity (PSR sort gate)": "low polyreactivity"}, {"sequence": "QVQLQESGGGLVKAGGDLRLSCAASGNIFRDYIMGWYRQAPGKEREFVAGIDRGANTNYADSVKGRFTISRDNAKNTVYLQMNSLKPVDTAVYYCGVHTAIVPDFIYWGQGTQVTVSS", "polyreactivity (PSR sort gate)": "low polyreactivity"}, {"sequence": "QVQLQESGGGLVLAGGSLRLSCAASGSISAQAYMGWDRQAPGKEREHVAGINYGDNTNYADSVKGRFTISRDNEHRVSADEQPETGRYRVVLLRGFLELFYYYIYWGQGTQVTVSS", "polyreactivity (PSR sort gate)": "high polyreactivity"}, {"sequence": "QVQLQESGGGLVQAGGCLRLRCAASRNISGSSDLGWYHQAPGKEREFVASMTSGGTTYYADSVKGRFTISRDNAKYTVYLQMKSQKTEDTAVYYCAVGDPADAEFGYWGQGTQVTVSS", "polyreactivity (PSR sort gate)": "low polyreactivity"}, {"sequence": "QVQLQESGGGLVQAGGCLRLSCAASGSIFDPDYMGWYHQAPGKESELVASISLGRITYYADSVKGRFTINRDNAKNTVYLQMNSLKPEDTAVYYCAVRVETIYYYSYWGQGTQVTVSS", "polyreactivity (PSR sort gate)": "high polyreactivity"}, {"sequence": "QVQLQESGGGLVQAGGRLPMSFAASGNIFDADIMGWYRQAPGKERELVASITDGRRTNYADSVKGRYTTSRDSEKNTVYLQMNSLKPEDTAVYYCAAIAYPVVPTYFDYDSDYFHWGQGTQVTVSS", "polyreactivity (PSR sort gate)": "high polyreactivity"}, {"sequence": "QVQLQESGGGLVQAGGSLCLSCAASGTIFFDRDMGWYRQAPGKEREFVAAINPGGSAYYADSVKGRLPLAAITHTVYLQRNSLKPEVTAVYYCAAKLFDVYGYYYWGQGTDVTVSS", "polyreactivity (PSR sort gate)": "low polyreactivity"}, {"sequence": "QVQLQESGGGLVQAGGSLGCAASGNISTRSEMGWYRQAPGKDREFVATINSGGITNYADSVNGRFTISRDNAKKTVYLRMNSLKTEDTAVYYRAVFGYLSDPNDYCGQGTQVTVSS", "polyreactivity (PSR sort gate)": "low polyreactivity"}, {"sequence": "QVQLQESGGGLVQAGGSLLSCAASGTISWVDEMGWYRQAPGNERELVAGIAGGGNTNYADSVKGRFTISRDNAKNTVYLQMNSLDTAVYYCAGWDYTGNVVTGDYWGQGTQVTVSS", "polyreactivity (PSR sort gate)": "high polyreactivity"}, {"sequence": "QVQLQESGGGLVQAGGSLLSCAASGTISYYREMGWSRQSPGKQRELVAGIGVGTITYYADSVKGRFTISRDNAKKTVFLQMNSLNPEDTAVYYCAAHIDGNDSHAYWGQGTQVTVSS", "polyreactivity (PSR sort gate)": "low polyreactivity"}, {"sequence": "QVQLQESGGGLVQAGGSLRKSCAASGYIFTQYGMGWYRQGPGKERKFVATISYGGNTNYADSVKGRFTISRDNAKNTVYLQLNSLKPEDTAVYSCATKSVGYRKYWSGDIYDYWGQGTQVTVSS", "polyreactivity (PSR sort gate)": "low polyreactivity"}, {"sequence": "QVQLQESGGGLVQAGGSLRLICAASGTISTDSYMGWYRQAPGKERKFVATIGYGGITYYADSVNGRSTISRDSAKNTVYLQMNSLKPDDTAVYYCEVNSYYPYHYWYWGRGTQVTVSS", "polyreactivity (PSR sort gate)": "high polyreactivity"}, {"sequence": "QVQLQESGGGLVQAGGSLRLRCAASGSISRLDYMGWYRQASGKELELVAAIDNGSTTYYADSVKGRLTISRDNEKYTVYLKMNSLKPEDTAVYFCAAVRGRGGTHAYWGQGTQVTVSG", "polyreactivity (PSR sort gate)": "low polyreactivity"}, {"sequence": "QVQLQESGGGLVQAGGSLRLSCAARGSICLDQPMGWYRQSPCKDPELVATIGQGGNTNYADSVKGRFTISRDNEKNTVYLYMTSLKPEDTAVYYCAVVYFYNYAYHYYWGQGTQVTVCS", "polyreactivity (PSR sort gate)": "low polyreactivity"}, {"sequence": "QVQLQESGGGLVQAGGSLRLSCAASCTISQEDCMGWYRQAPGKVREFVAAIGLGSNTNYADSLKGRFTISRDNAKNTVYLQMNRLKPEDTAVYYCAVSVWQYSDHVYRGQGTQVTVSS", "polyreactivity (PSR sort gate)": "low polyreactivity"}, {"sequence": "QVQLQESGGGLVQAGGSLRLSCAASGDNLEADDMGWYRQAPGKERELVASITDGGSTNCADSMKGRSTICRDNAKITVYLQMNSLKLEDTAVYYCAAIAYPDVPTYFDYDSDYFYWGQGTLVTVSS", "polyreactivity (PSR sort gate)": "high polyreactivity"}, {"sequence": "QVQLQESGGGLVQAGGSLRLSCAASGNIFLGDTMGWYRQAPGKEREFVAGIARGGNPYYADSVKGRFTISRNNAKNTVYLQKNSLKAEDTAVHYCAVQRSHASDYNYWGQGTQVTVSS", "polyreactivity (PSR sort gate)": "low polyreactivity"}, {"sequence": "QVQLQESGGGLVQAGGSLRLSCAASGSIANLIAKGWSRQAQRKEREFVAAIGPGANTNYADSVKGRFTISRDNANNTVYRQMNSLKPEDTAVYYCAVDYYGEAVYHYWGQGTQVTVSS", "polyreactivity (PSR sort gate)": "high polyreactivity"}, {"sequence": "QVQLQESGGGLVQAGGSLRLSCAASGSIFDGFYMGWYRQAPGKEREFVAAISYGASTYYADSVKGRFTVSRDNAKNSVYLQMNSLKPEDTAVYYCAVYDELYHVLVYWGRGTQVTVSS", "polyreactivity (PSR sort gate)": "low polyreactivity"}, {"sequence": "QVQLQESGGGLVQAGGSLRLSCAASGSIFDYVSMGWYRQAPGEERELVVTITLGSNTYYADSVKGRFTISSDIAKNTVYLQMNSLNPVDTAVYYCAASALWGYVYPYWGLGTQVTVSS", "polyreactivity (PSR sort gate)": "high polyreactivity"}, {"sequence": "QVQLQESGGGLVQAGGSLRLSCAASGSIFLFYTMGWYRQAPVKEREFVAGITLGTTTYNADSVKGRFTISRDNVKNTVYLQMNSLKPEDTAVYYCAVAVGHYTEFWYWGQGTQVTMSS", "polyreactivity (PSR sort gate)": "high polyreactivity"}, {"sequence": "QVQLQESGGGLVQAGGSLRLSCAASGSIFVSVTMGWYRPAPGKERELVASIGRGSTTNHADSVKGRFTISRDNAKNIVYLLMNSLKPEDTAVYYCAALESYGKYHGYWGQGTQVTVSS", "polyreactivity (PSR sort gate)": "low polyreactivity"}, {"sequence": "QVQLQESGGGLVQAGGSLRLSCAASGSIFVSVTMGWYRQAPGKERELVASIGRGSTTNHADSVKGRFTISRDNAKNIVYLLMNSLKPEDTAVYYCAALESYGKYHGYWGQGTQVTVCS", "polyreactivity (PSR sort gate)": "low polyreactivity"}, {"sequence": "QVQLQESGGGLVQAGGSLRLSCAASGSIFYKDDMGWYRQAPGKEREFVAGIDRGGTTNCAGSVKGRFTISRDNAKNTVYLQMISLKPEDTAVYYCAAYYPDIYPFIYRGQGTQVTVSS", "polyreactivity (PSR sort gate)": "high polyreactivity"}, {"sequence": "QVQLQESGGGLVQAGGSLRLSCAASGSIFYVYGMGWYRQAPGKERELVAVINAGTNTNYADSVRGRFTISRDNAINSVLLQMNSLKPEDTAVYYCADDGNGYQAHEYWGQGNQVTVSS", "polyreactivity (PSR sort gate)": "high polyreactivity"}, {"sequence": "QVQLQESGGGLVQAGGSLRLSCAASGSISRYYDMGWYRQAPGKEREFVAGISGGAITYYADSVKGRFTISRDNAKNTVDLQMNSLKPQDTAVYYCAADTGVYQYHSYWGQGTQVTVSS", "polyreactivity (PSR sort gate)": "low polyreactivity"}, {"sequence": "QVQLQESGGGLVQAGGSLRLSCAASGSISRYYDMGWYRQAPGKEREFVAGISGGAITYYADSVKGRFTISRDNAKNTVYLQMNSLKPEDTAVYYCAADPGVYQYHSYWGQGTQVTVSS", "polyreactivity (PSR sort gate)": "low polyreactivity"}, {"sequence": "QVQLQESGGGLVQAGGSLRLSCAASGSISRYYDMGWYRQAPGTEREFVAGISGGAITYYADRVKGRFTISRDNAKNTVYLQMNSLKPEDTAVDYCAADTGVYLYHSYWGQGTQVTVSS", "polyreactivity (PSR sort gate)": "low polyreactivity"}, {"sequence": "QVQLQESGGGLVQAGGSLRLSCAASGSISYPRTMGWYRQAPGKEREFVAGIGVGGTTYYADSVKGRFTISRDNAKNTVYLQMHSLKPEDAAVFYFAVAAFYDKYYVYWGQGTQVTVSC", "polyreactivity (PSR sort gate)": "low polyreactivity"}, {"sequence": "QVQLQESGGGLVQAGGSLRLSCAASGSIYDDTYMGWYRQAPGKERELVATIDSGSTTNYADSVKGRITISRDNAKNTVYLQMNSLKPEDTGVYYCAAADSHIDYFDYWGQGTQVTVSS", "polyreactivity (PSR sort gate)": "low polyreactivity"}, {"sequence": "QVQLQESGGGLVQAGGSLRLSCAASGSIYDDTYMGWYRQAPGKERELVATIDSGSTTNYADSVKGRITISRDNAKYTVYLQMNSLKPEDTAVYYCAAADSHIDYFDYWGQGTQVTVSS", "polyreactivity (PSR sort gate)": "low polyreactivity"}, {"sequence": "QVQLQESGGGLVQAGGSLRLSCAASGSSSILHSMGWYRQAPRKERELVAGINWGATTYYADSVKGRLTTSRDYAKNTVYLQMNSLKPEDTAVYYCAVPTYYPYPLLYWGQGTQVTVSS", "polyreactivity (PSR sort gate)": "low polyreactivity"}]}]}
